# Measurements taken from the supplement of paper PMC9112550, “Optimization of the antimicrobial peptide Bac7 by deep mutational scanning” (BMC Biology, 2022).
# Tested on: Escherichia coli TOP10
# Test: shrunken log2 fold change of peptide-encoding DNA abundance (4.5 h post-induction vs induction); higher = less antimicrobial activity (less host growth inhibition)
# Conditions: time post-induction: 4.5 h; library: site-saturation at positions 5, 18, 19, 20
# 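Note: peptides expressed intracellularly from a pBAD plasmid library in pooled LB shake-flask culture, induced with 0.3% L-arabinose, DNA abundance read by NGS, three biological replicates, DESeq2 with apeglm shrinkage.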
row,Sequence,shrunken log2 fold change
1,RRIRRRPPRLPRPRPRPFTEPRP,-0.267
2,RRIRCRPPRLPRPRPRPQASPRP,-0.000207
3,RRIRDRPPRLPRPRPRPLFQPRP,0.192
4,RRIRWRPPRLPRPRPRPHNSPRP,-0.394
5,RRIRVRPPRLPRPRPRPTCKPRP,-0.0395
6,RRIRQRPPRLPRPRPRPCSGPRP,-0.0532
7,RRIRGRPPRLPRPRPRPALYPRP,0.363
8,RRIRIRPPRLPRPRPRPEWLPRP,-0.216
9,RRIRVRPPRLPRPRPRPRSSPRP,-0.244
10,RRIRNRPPRLPRPRPRPMMNPRP,0.274
11,RRIRYRPPRLPRPRPRPPFAPRP,0.0915
12,RRIRDRPPRLPRPRPRPCMTPRP,0.33
13,RRIRNRPPRLPRPRPRPYTMPRP,-0.38
14,RRIRCRPPRLPRPRPRPEAMPRP,0.536
15,RRIRYRPPRLPRPRPRPRFCPRP,-0.17
16,RRIRGRPPRLPRPRPRPQQTPRP,1.6
17,RRIRRRPPRLPRPRPRPVYIPRP,-0.535
18,RRIRWRPPRLPRPRPRPPMPPRP,0.444
19,RRIRIRPPRLPRPRPRPHWLPRP,-0.49
20,RRIRMRPPRLPRPRPRPNFQPRP,-0.0246
21,RRIRTRPPRLPRPRPRPECCPRP,0.348
22,RRIRVRPPRLPRPRPRPNMCPRP,-0.576
23,RRIRVRPPRLPRPRPRPMPIPRP,0.055
24,RRIRNRPPRLPRPRPRPAHDPRP,0.055
25,RRIRCRPPRLPRPRPRPWLPPRP,-0.122

row,Sequence,shrunken log2 fold change
1,RRIRPRPPRLPRPRPRPPAAPRP,0.54
2,RRIRRRPPRLPRPRPRPYVCPRP,-0.374
3,RRIRMRPPRLPRPRPRPTSGPRP,1.06
4,RRIRLRPPRLPRPRPRPIFLPRP,-0.333
5,RRIRARPPRLPRPRPRPGFTPRP,0.204
6,RRIRTRPPRLPRPRPRPKEAPRP,0.00564
7,RRIRLRPPRLPRPRPRPVVDPRP,0.117
8,RRIRARPPRLPRPRPRPHEVPRP,0.101
9,RRIRRRPPRLPRPRPRPYYYPRP,-0.9
10,RRIRVRPPRLPRPRPRPLADPRP,0.279
11,RRIRYRPPRLPRPRPRPTYFPRP,-0.485
12,RRIRVRPPRLPRPRPRPGIMPRP,-0.000355
13,RRIRKRPPRLPRPRPRPERHPRP,0.105
14,RRIRVRPPRLPRPRPRPWHGPRP,-0.121
15,RRIRGRPPRLPRPRPRPMEKPRP,0.0535
16,RRIRERPPRLPRPRPRPERYPRP,-0.162
17,RRIRSRPPRLPRPRPRPFMMPRP,-0.643
18,RRIRRRPPRLPRPRPRPTAVPRP,0.606
19,RRIRERPPRLPRPRPRPKICPRP,0.0135
20,RRIRKRPPRLPRPRPRPIDVPRP,0.191
21,RRIRARPPRLPRPRPRPKINPRP,-0.0292
22,RRIRLRPPRLPRPRPRPRLCPRP,0.35
23,RRIRFRPPRLPRPRPRPESRPRP,0.146
24,RRIRNRPPRLPRPRPRPMMGPRP,0.0355
25,RRIRRRPPRLPRPRPRPSNWPRP,-0.192

row,Sequence,shrunken log2 fold change
1,RRIRSRPPRLPRPRPRPQIMPRP,1.11
2,RRIRYRPPRLPRPRPRPCAFPRP,-0.353
3,RRIRYRPPRLPRPRPRPSDQPRP,-0.235
4,RRIRLRPPRLPRPRPRPREMPRP,0.149
5,RRIRLRPPRLPRPRPRPRESPRP,0.787
6,RRIRKRPPRLPRPRPRPMVSPRP,0.0111
7,RRIRYRPPRLPRPRPRPNVPPRP,-3.01
8,RRIRNRPPRLPRPRPRPAPAPRP,0.959
9,RRIRWRPPRLPRPRPRPSGFPRP,0.121
10,RRIRYRPPRLPRPRPRPNPAPRP,0.0854
11,RRIRRRPPRLPRPRPRPPHNPRP,1.21
12,RRIRTRPPRLPRPRPRPNRDPRP,-0.0614
13,RRIRCRPPRLPRPRPRPPKFPRP,-0.0746
14,RRIRDRPPRLPRPRPRPIFYPRP,0.0295
15,RRIRWRPPRLPRPRPRPNQLPRP,-0.208
16,RRIRGRPPRLPRPRPRPCQWPRP,0.0251
17,RRIRLRPPRLPRPRPRPPTNPRP,0.177
18,RRIRSRPPRLPRPRPRPMELPRP,-0.187
19,RRIRIRPPRLPRPRPRPARCPRP,0.0563
20,RRIRWRPPRLPRPRPRPGIDPRP,0.117
21,RRIRIRPPRLPRPRPRPYNLPRP,-0.391
22,RRIRTRPPRLPRPRPRPAAGPRP,0.375
23,RRIRHRPPRLPRPRPRPWIDPRP,-0.00448
24,RRIRWRPPRLPRPRPRPTFYPRP,-0.298
25,RRIRCRPPRLPRPRPRPYEWPRP,-0.0207

row,Sequence,shrunken log2 fold change
1,RRIRIRPPRLPRPRPRPWYKPRP,-0.689
2,RRIRDRPPRLPRPRPRPVHEPRP,-0.0506
3,RRIRMRPPRLPRPRPRPACGPRP,0.811
4,RRIRDRPPRLPRPRPRPYAPPRP,-0.477
5,RRIRGRPPRLPRPRPRPGIKPRP,0.429
6,RRIRLRPPRLPRPRPRPRASPRP,0.516
7,RRIRHRPPRLPRPRPRPDFLPRP,-0.0554
8,RRIRTRPPRLPRPRPRPVTWPRP,-0.0681
9,RRIRKRPPRLPRPRPRPGMIPRP,-0.0362
10,RRIRWRPPRLPRPRPRPGCFPRP,0.375
11,RRIRYRPPRLPRPRPRPQGYPRP,-0.516
12,RRIRVRPPRLPRPRPRPPLHPRP,0.128
13,RRIRWRPPRLPRPRPRPPVPPRP,0.469
14,RRIRGRPPRLPRPRPRPLYKPRP,0.0468
15,RRIRLRPPRLPRPRPRPLQNPRP,0.166
16,RRIRCRPPRLPRPRPRPWDEPRP,0.247
17,RRIRCRPPRLPRPRPRPPSFPRP,0.175
18,RRIRQRPPRLPRPRPRPEKSPRP,0.287
19,RRIRCRPPRLPRPRPRPVSWPRP,0.49
20,RRIRWRPPRLPRPRPRPGMKPRP,0.0023
21,RRIRWRPPRLPRPRPRPWWNPRP,-0.0562
22,RRIRPRPPRLPRPRPRPKSWPRP,0.258
23,RRIRFRPPRLPRPRPRPMNNPRP,-0.501
24,RRIRFRPPRLPRPRPRPDWYPRP,-0.0899
25,RRIRGRPPRLPRPRPRPNHHPRP,0.491

row,Sequence,shrunken log2 fold change
1,RRIRGRPPRLPRPRPRPHTVPRP,-0.311
2,RRIRWRPPRLPRPRPRPYQTPRP,-0.223
3,RRIRVRPPRLPRPRPRPMIWPRP,-0.179
4,RRIRHRPPRLPRPRPRPEEIPRP,0.0207
5,RRIRVRPPRLPRPRPRPNFCPRP,-0.139
6,RRIRVRPPRLPRPRPRPSNTPRP,-0.417
7,RRIRKRPPRLPRPRPRPENRPRP,0.246
8,RRIRIRPPRLPRPRPRPWRDPRP,-0.0858
9,RRIRQRPPRLPRPRPRPHWIPRP,-0.452
10,RRIRDRPPRLPRPRPRPECSPRP,0.0314
11,RRIRLRPPRLPRPRPRPGFEPRP,0.168
12,RRIRIRPPRLPRPRPRPTYWPRP,-0.421
13,RRIRIRPPRLPRPRPRPLVMPRP,-1.56
14,RRIRVRPPRLPRPRPRPKHIPRP,-0.47
15,RRIRFRPPRLPRPRPRPVKRPRP,0.0219
16,RRIRMRPPRLPRPRPRPVRYPRP,0.64
17,RRIRFRPPRLPRPRPRPHMHPRP,-0.655
18,RRIRPRPPRLPRPRPRPQAEPRP,0.113
19,RRIRPRPPRLPRPRPRPSYEPRP,-0.178
20,RRIRMRPPRLPRPRPRPCARPRP,0.343
21,RRIRRRPPRLPRPRPRPKFKPRP,-0.046
22,RRIRRRPPRLPRPRPRPAWNPRP,0.141
23,RRIRNRPPRLPRPRPRPDFSPRP,-0.0911
24,RRIRARPPRLPRPRPRPPTPPRP,1.33
25,RRIRGRPPRLPRPRPRPPGDPRP,1.18

row,Sequence,shrunken log2 fold change
1,RRIRMRPPRLPRPRPRPWAMPRP,0.0684
2,RRIRSRPPRLPRPRPRPKPMPRP,0.2
3,RRIRHRPPRLPRPRPRPDNMPRP,3.69
4,RRIRWRPPRLPRPRPRPGPKPRP,0.21
5,RRIRTRPPRLPRPRPRPYQPPRP,-0.0681
6,RRIRKRPPRLPRPRPRPAKYPRP,0.0456
7,RRIRPRPPRLPRPRPRPIVAPRP,0.133
8,RRIRWRPPRLPRPRPRPQCTPRP,0.11
9,RRIRPRPPRLPRPRPRPPIRPRP,0.41
10,RRIRRRPPRLPRPRPRPMMGPRP,0.235
11,RRIRRRPPRLPRPRPRPQIKPRP,-0.155
12,RRIRFRPPRLPRPRPRPENTPRP,0.003
13,RRIRKRPPRLPRPRPRPHFLPRP,0.12
14,RRIRGRPPRLPRPRPRPQSGPRP,0.0868
15,RRIRERPPRLPRPRPRPVSSPRP,-0.215
16,RRIRERPPRLPRPRPRPWKNPRP,-0.0553
17,RRIRVRPPRLPRPRPRPKDKPRP,-0.13
18,RRIRRRPPRLPRPRPRPQNLPRP,-0.276
19,RRIRERPPRLPRPRPRPVEYPRP,-0.0437
20,RRIRHRPPRLPRPRPRPYQLPRP,-0.0135
21,RRIRSRPPRLPRPRPRPDRLPRP,-0.168
22,RRIRKRPPRLPRPRPRPANGPRP,0.566
23,RRIRARPPRLPRPRPRPYWHPRP,-0.241
24,RRIRRRPPRLPRPRPRPMGKPRP,0.35
25,RRIRDRPPRLPRPRPRPKDPPRP,-0.00415
